According to patent US20240165214A1, “COMPOSITIONS AND METHODS FOR STABILIZATION OF ALLOSTERIC PROTEINS” (priority 2021, published 2024):

What was measured:
[1] = molecular target: horseradish peroxidase (HRP) (horseradish) (UniProt P00433); assay: time course of soluble HRP on fimbriae pre-treated with mAb824
[2] = molecular target: FimH^FocH (Escherichia coli K12; Escherichia coli) (UniProt P08191); assay: cell-based or functional assay
[3] = molecular target: FimH^wt (FimH adhesin of E. coli K12) (Escherichia coli K12) (UniProt P08191); assay: cell-based or functional assay
[4] = molecular target: FimH^wt (FimH adhesin of E. coli K12) (Escherichia coli K12) (UniProt P08191); assay: ELISA, mAb824 on FimH^wt fimbriae, with 1% αmm
[5] = molecular target: FimH^wt (FimH adhesin of E. coli K12) (Escherichia coli K12) (UniProt P08191); assay: ELISA, mAb824 on FimH^wt fimbriae, without αmm
[6] = molecular target: FimH^FocH (Escherichia coli K12; Escherichia coli) (UniProt P08191); assay: ELISA, mAb824 on FimH^FocH fimbriae, with 1% αmm
[7] = molecular target: FimH^FocH (Escherichia coli K12; Escherichia coli) (UniProt P08191); assay: ELISA, mAb824 on FimH^FocH fimbriae, without αmm
fimbrial FimH = assay: mAb21 ELISA on fimbriae after αmm / Fab824 pre-treatment; type: binding, Escherichia coli; details: FimH^wt pre-treated with PBS only
Excerpt: Bound antibodies were detected with a 1:5,000 diluted HRP-conjugated goat anti-mouse Fc antibody (Sigma-Aldrich). […] Binding of the latter antibody was detected using 1:5,000 diluted HRP-conjugated streptavidin (Invitrogen).

yeast mannan = assay: FimH-dependent bacterial adhesion to yeast mannan (Example 7); type: cell-based; details: 1% mannose
Procedure: FimH-dependent bacterial adhesion was analyzed as described previously. Briefly, Immulon 4HBX microtiter plates (Thermo Electron Corp.) were coated with 20 μg/mL of yeast mannan and plates were quenched with 0.2% BSA in PBS. Bacterial suspensions in PBS (OD540=2) were added to each well in a volume of 100 μl and incubated for 1 h at 37° C. After extensive washing, bound bacteria were stained with 0.1% (vol/vol) crystal violet for 20 min at room temperature and were washed several times with water. Then 100 μl of 50% (vol/vol) ethanol was added to each well, and the absorbance at a wavelength of 600 nm was measured. For inhibition, bacterial binding was tested in the presence of 1% mannose.

asialofetuin = molecular target: T1, asialofetuin (UniProt P12763 19-359, oligosaccharides with terminal galactose (beta1-3)); assay: adhesion of bacteria expressing the FmlH variant to surface-coated asialofetuin, crystal violet, absorbance 600 nm
T1 construct: also called asialated fetuin
T1 sequence (looked up): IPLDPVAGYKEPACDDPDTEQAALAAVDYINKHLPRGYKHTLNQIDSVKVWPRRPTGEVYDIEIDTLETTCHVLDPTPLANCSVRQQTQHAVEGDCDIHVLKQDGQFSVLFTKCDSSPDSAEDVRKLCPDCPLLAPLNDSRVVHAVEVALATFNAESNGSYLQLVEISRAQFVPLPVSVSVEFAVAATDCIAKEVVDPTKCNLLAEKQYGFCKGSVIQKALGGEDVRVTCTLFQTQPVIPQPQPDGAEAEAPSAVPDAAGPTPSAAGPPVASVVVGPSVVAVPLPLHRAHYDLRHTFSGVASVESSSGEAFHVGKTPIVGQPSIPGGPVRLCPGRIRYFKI
Procedure: Briefly, Immulon 4HBX microtiter plates (Thermo Electron Corp.) were coated with 20 μg/mL of asialofetuin (Sigma-Aldrich) and plates were quenched with 0.2% BSA in PBS. Bacterial suspensions in PBS (OD540=2) were added to each well in a volume of 100 μl and plates were spun for 2 min at 750×g. After extensive washing, bound bacteria were stained with 0.1% (vol/vol) crystal violet for 20 min at room temperature and were washed several times with water. Then 100 μl of 50% (vol/vol) ethanol was added to each well, and the absorbance at a wavelength of 600 nm was measured. For inhibition, bacterial binding was tested in the presence of 1% galactose (Sigma).
Briefly, Immulon 4HBX microtiter plates (ThermoFisher Scientific) were coated with 20 μg/mL of asialofetuin (Sigma-Aldrich) and plates were quenched with 0.2% BSA in PBS. Bacterial suspensions in PBS (OD540=2) were added to each well in a volume of 100 μl and plates were spun for 2 min at 750×g. After extensive washing, bound bacteria were stained with 0.1% (vol/vol) crystal violet for 20 min at room temperature and were washed several times with water. Then 100 μl of 50% (vol/vol) ethanol was added to each well, and the absorbance at a wavelength of 600 nm was measured. For inhibition, bacterial binding was tested in the presence of 1% galactose (Sigma).

Chain of horseradish peroxidase (HRP) (horseradish) (P00433 31-338): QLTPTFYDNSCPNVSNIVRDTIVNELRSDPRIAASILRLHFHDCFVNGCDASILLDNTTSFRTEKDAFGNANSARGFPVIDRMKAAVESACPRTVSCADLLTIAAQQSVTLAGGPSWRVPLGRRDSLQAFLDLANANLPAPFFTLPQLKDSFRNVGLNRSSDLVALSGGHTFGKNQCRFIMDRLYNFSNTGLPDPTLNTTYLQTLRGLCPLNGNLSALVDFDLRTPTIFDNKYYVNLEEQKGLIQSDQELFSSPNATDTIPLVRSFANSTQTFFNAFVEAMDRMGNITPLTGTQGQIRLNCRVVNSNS

Molecule FimH^FocH (from UniProt P08191 22-300) has a fold decrease in the rate of binding with mAb824 against untreated [1] greater than 10 fold.

With mAb824 (antibody) the RBC agglutination: time (in min) upon which noticeable aggregation of RBC was observed [2] was greater than 60 min, the RBC agglutination: time (in min) upon which noticeable aggregation of RBC was observed [3] was greater than 60 min and the EC50 (read off the curve) [4] was 20 pM. It also gave an EC50 (read off the curve) [5] of 20 pM, an EC50 (read off the curve) [6] of 20 pM and an EC50 (read off the curve) [7] of 20 pM.

α-methyl-D-mannopyranoside [αmm] was tested, and the “αmm concentration at plateau of mAb21 binding” value (fimbrial FimH) was 0.1-1.0 % αmm and the “inhibition of bacterial adhesion to yeast mannan-coated surface” value (yeast mannan) was greater than 95%.

B1: FmIH^wt (full-length wild-type FmlH adhesin) (other, Escherichia coli CFT073)
chain: FSCNVDGGSSIGAGTTSVYVNLDPVIQPGQNLVVDLSQHISCWNDYGGWYDTDHINLVQGSAFAGSLQSYKGSLYWNNVTYPFPLTTNTNVLDIGDKTPMPLPLKLYITPVGAAGGVVIKAGEVIARIHMYKIATLGSGNPRNFTWNIISNNSVVMPTGGCTVDSRNVTVDLPDFPGSAEIPLGVYCSSEQKLSFYLSGATTDSSRQVFANTAPDATKASGVGVTLMRNGKILATGENVSLGTVNKSKVPLGLSATYGQTGNKVSAGTVQSVIGVTFIYE
notes: domain: pilin domain; Expressed on bacteria in the type 1 fimbrial background
B1: no binding (asialofetuin).
